In paper PMC11456535, “Receptor activity-modifying protein modulation of parathyroid hormone-1 receptor function and signaling” (Frontiers in Pharmacology, 2024):
Where two headings read alike, the source gives them in different places. One block for each molecule: values may come before it.

How the values were obtained:
[1] = target: PTH1R of the PathHunter CHO-K1 PTH1R β-arrestin cell line (UniProt Q03431)
[2] = target: PTH1R of the PathHunter CHO-K1 PTH1R β-arrestin cell line (UniProt Q03431); remark: listed apart in the source
[3] = target: T1, parathyroid hormone 1 receptor, C-tagged Citrine PTH1R (human, UniProt Q03431 27-593); test: FRET or BRET; sensitized-emission FRET imaging at the cell surface (50-pixel membrane ROIs) of fixed COS-7 cells co-transfected with C-tagged Citrine PTH1R (acceptor) and C-tagged Cerulean RAMP (donor); NFRET as % of a Cerulean-Citrine fusion; FRET-based stoichiometric analysis (Hoppe et al., 2002); conditions: partners not purified
T1 construct: parathyroid hormone 1 receptor (PTH1R), cDNA without its stop codon between HindIII and Not1 of pcDNA3.1 Citrine; also called parathyroid hormone receptor-1; PTHR1; source: COS-7, transfected (electroporation, pcDNA3.1), in fixed cells; not shown: Citrine, C-terminal, kept
T1 sequence (looked up): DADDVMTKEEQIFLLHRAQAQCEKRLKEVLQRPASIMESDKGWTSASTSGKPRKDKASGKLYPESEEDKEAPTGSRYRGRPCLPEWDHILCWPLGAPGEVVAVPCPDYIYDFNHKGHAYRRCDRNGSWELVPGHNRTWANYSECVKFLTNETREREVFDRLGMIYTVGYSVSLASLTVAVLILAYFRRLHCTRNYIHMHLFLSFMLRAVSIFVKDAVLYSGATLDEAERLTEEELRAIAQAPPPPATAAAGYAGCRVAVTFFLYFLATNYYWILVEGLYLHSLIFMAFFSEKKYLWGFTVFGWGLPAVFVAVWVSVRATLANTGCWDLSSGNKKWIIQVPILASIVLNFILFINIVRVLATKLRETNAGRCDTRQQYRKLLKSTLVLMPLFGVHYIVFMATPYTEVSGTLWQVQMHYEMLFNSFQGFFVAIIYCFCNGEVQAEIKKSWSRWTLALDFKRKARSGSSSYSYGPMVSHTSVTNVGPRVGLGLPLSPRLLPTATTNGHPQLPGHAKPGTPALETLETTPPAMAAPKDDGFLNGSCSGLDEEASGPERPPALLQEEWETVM

[4] = target: T1, parathyroid hormone 1 receptor, …; test: as above; conditions: partners not purified; remark: listed apart in the source
[5] = target: PTH1R of the PathHunter CHO-K1 PTH1R β-arrestin cell line (UniProt Q03431); remark: listed apart in the source

Molecule: PTH (1-34) (peptide)
efficacy, cAMP accumulation (Gαs), CHO-K1 PTH1R + RAMP2 cells [1]: 79.4%
efficacy, cAMP accumulation (Gαs), CHO-K1 PTH1R + RAMP3 cells [1]: 65.1%
efficacy, cAMP accumulation (Gαs), CHO-K1 PTH1R parental cells (mock) [1]: 68.1%
efficacy, cAMP accumulation after pertussis toxin (cAMP + PTX), CHO-K1 PTH1R + RAMP2 cells [1]: 71.6%
efficacy, cAMP accumulation after pertussis toxin (cAMP + PTX), CHO-K1 PTH1R + RAMP3 cells [1]: 28.7%
efficacy, cAMP accumulation after pertussis toxin (cAMP + PTX), CHO-K1 PTH1R parental cells (mock) [1]: 33.5%
efficacy, calcium influx (Gαq), CHO-K1 PTH1R + RAMP2 cells [1]: 63.5%
efficacy, calcium influx (Gαq), CHO-K1 PTH1R parental cells (mock) [1]: 19.8%
efficacy, β-arrestin recruitment, CHO-K1 PTH1R + RAMP2 cells [1]: 103%
efficacy, β-arrestin recruitment, CHO-K1 PTH1R parental cells (mock) [1]: 6.31%
pEC50, cAMP accumulation (Gαs), CHO-K1 PTH1R + RAMP2 cells [1]: 9.55 pEC50
pEC50, cAMP accumulation (Gαs), CHO-K1 PTH1R + RAMP3 cells [1]: 8.55 pEC50
pEC50, cAMP accumulation (Gαs), CHO-K1 PTH1R parental cells (mock) [1]: 9.3 pEC50
pEC50, cAMP accumulation after pertussis toxin (cAMP + PTX), CHO-K1 PTH1R + RAMP2 cells [1]: 10 pEC50
pEC50, cAMP accumulation after pertussis toxin (cAMP + PTX), CHO-K1 PTH1R + RAMP3 cells [1]: 8.48 pEC50
pEC50, cAMP accumulation after pertussis toxin (cAMP + PTX), CHO-K1 PTH1R parental cells (mock) [1]: 8.9 pEC50
pEC50, calcium influx (Gαq), CHO-K1 PTH1R + RAMP2 cells [1]: 8.21 pEC50
pEC50, calcium influx (Gαq), CHO-K1 PTH1R parental cells (mock) [1]: 8.9 pEC50
pEC50, β-arrestin recruitment, CHO-K1 PTH1R + RAMP2 cells [1]: 8.19 pEC50
pEC50, β-arrestin recruitment, CHO-K1 PTH1R parental cells (mock) [1]: 8.6 pEC50

Molecule: PTHrP (1-141) (ligand)
efficacy, cAMP accumulation, CHO-K1 PTH1R + RAMP2 cells [2]: 85.3%
efficacy, cAMP accumulation, CHO-K1 PTH1R + RAMP3 cells [2]: 55.7%
efficacy, cAMP accumulation, CHO-K1 PTH1R parental cells (mock) [2]: 74.9%
pEC50, cAMP accumulation, CHO-K1 PTH1R + RAMP2 cells [2]: 9.25 pEC50
pEC50, cAMP accumulation, CHO-K1 PTH1R + RAMP3 cells [2]: 7.86 pEC50
pEC50, cAMP accumulation, CHO-K1 PTH1R parental cells (mock) [2]: 9.23 pEC50

B1: receptor activity-modifying protein 3, C-tagged Cerulean RAMP3 (natural protein, human, UniProt O60896 24-148, looked up)
chain: RAGGCNETGMLERLPLCGKAFADMMGKVDVWKWCNLSEFIVYYESFTNCTEMEANVVGCYWPNPLAQGFITGIHRQFFSNCTVDRVHLEDPPDEVLIPLIVIPVVLTVAMAGLVVWRSKRTDTLL
notes: RAMP3, cDNA without its stop codon between Kpn1 and Not1 of pcDNA3.1 Cerulean; source: COS-7, transfected (electroporation, pcDNA3.1), in fixed cells; not shown: Cerulean, C-terminal, kept
stoichiometry N [3]: ~2 RAMP3 per PTH1R
R (molar ratio of acceptor to donor) [4]: 0.37 ± 0.06 PTH1R (acceptor) per RAMP3 (donor)
cell membrane NFRET relative to cer-cit fusion [4]: 32 ± 4.7%

B2: receptor activity-modifying protein 2, C-tagged Cerulean RAMP2 (natural protein, human, UniProt O60895 43-175, looked up)
chain: QPLPTTGTPGSEGGTVKNYETAVQFCWNHYKDQMDPIEKDWCDWAMISRPYSTLRDCLEHFAELFDLGFPNPLAERIIFETHQIHFANCSLVQPTFSDPPEDVLLAMIIAPICLIPFLITLVVWRSKDSEAQA
notes: RAMP2, cDNA without its stop codon between Kpn1 and Not1 of pcDNA3.1 Cerulean; source: COS-7, transfected (electroporation, pcDNA3.1), in fixed cells; not shown: Cerulean, C-terminal, kept
stoichiometry N [3]: ~1 RAMP2 per PTH1R
R (molar ratio of acceptor to donor) [4]: 1.27 ± 0.31 PTH1R (acceptor) per RAMP2 (donor)
cell membrane NFRET relative to cer-cit fusion [4]: 48.8 ± 4.1%

The next lines start with results.

efficacy, cAMP accumulation, CHO-K1 PTH1R + RAMP2 cells [2]: 81.4%
efficacy, cAMP accumulation, CHO-K1 PTH1R parental cells (mock) [2]: 72.8%
pEC50, cAMP accumulation, CHO-K1 PTH1R + RAMP2 cells [2]: 8.61 pEC50
pEC50, cAMP accumulation, CHO-K1 PTH1R parental cells (mock) [2]: 8.25 pEC50
Molecule: PTHrP (1-108) (domain or fragment)

efficacy, cAMP accumulation (Gαs), CHO-K1 PTH1R + RAMP2 cells [5]: 95.5%
efficacy, cAMP accumulation (Gαs), CHO-K1 PTH1R + RAMP3 cells [5]: 72.2%
efficacy, cAMP accumulation (Gαs), CHO-K1 PTH1R parental cells (mock) [5]: 86.6%
efficacy, calcium influx (Gαq), CHO-K1 PTH1R + RAMP2 cells [5]: 82.2%
efficacy, β-arrestin recruitment, CHO-K1 PTH1R + RAMP2 cells [5]: 104%
efficacy, β-arrestin recruitment, CHO-K1 PTH1R parental cells (mock) [5]: 6.08%
pEC50, cAMP accumulation (Gαs), CHO-K1 PTH1R + RAMP2 cells [5]: 9.24 pEC50
pEC50, cAMP accumulation (Gαs), CHO-K1 PTH1R + RAMP3 cells [5]: 7.55 pEC50
pEC50, cAMP accumulation (Gαs), CHO-K1 PTH1R parental cells (mock) [5]: 8.2 pEC50
pEC50, calcium influx (Gαq), CHO-K1 PTH1R + RAMP2 cells [5]: 7.38 pEC50
pEC50, β-arrestin recruitment, CHO-K1 PTH1R + RAMP2 cells [5]: 8.1 pEC50
pEC50, β-arrestin recruitment, CHO-K1 PTH1R parental cells (mock) [5]: 8.4 pEC50
B3: PTH (1-84) (ligand)
chain: SVSEIQLMHNLGKHLNSMERVEWLRKKLQDVHNFVALGAPLAPRDAGSQRPRKKEDNVLVESHEKSLGEADKADVNVLTKAKSQ
efficacy, cAMP accumulation after pertussis toxin (cAMP + PTX), CHO-K1 PTH1R + RAMP2 cells [5]: 94.3%
efficacy, cAMP accumulation after pertussis toxin (cAMP + PTX), CHO-K1 PTH1R + RAMP3 cells [5]: 71.5%
efficacy, cAMP accumulation after pertussis toxin (cAMP + PTX), CHO-K1 PTH1R parental cells (mock) [5]: 85.5%
pEC50, cAMP accumulation after pertussis toxin (cAMP + PTX), CHO-K1 PTH1R + RAMP2 cells [5]: 9.01 pEC50
pEC50, cAMP accumulation after pertussis toxin (cAMP + PTX), CHO-K1 PTH1R + RAMP3 cells [5]: 7.51 pEC50
pEC50, cAMP accumulation after pertussis toxin (cAMP + PTX), CHO-K1 PTH1R parental cells (mock) [5]: 7.8 pEC50
